Experimental data reported in paper PMC6048692 (Chemical Science, 2018).

B1: DsRed fused to MoTag2 (natural protein)
chain: MRSSKNVIKEFMRFKVRMEGTVNGHEFEIEGEGEGRPYEGHNTVKLKVTKGGPLPFAWDILSPQFQYGSKVYVKHPADIPDYKKLSFPEGFKWERVMNFEDGGVVTVTQDSSLQDGCFIYKVKFIGVNFPSDGPVMQKKTMGWEASTERLYPRDGVLKGEIHKALKLKDGGHYLVEFKSIYMAKKPVQLPGYYYVDSKLDITSHNEDYTIVEQYERTEGRHHLFL

How the values were obtained:
[1] = molecular target: the molecule itself; assay: MoTag2 comet formation, MT plus end tracking
SEC = molecular target: the molecule itself; assay: SEC

Protein	stoichiometry N [1]	stoichiometry N (SEC)
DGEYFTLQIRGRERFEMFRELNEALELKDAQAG (domain or fragment) [p53 tetramerization domain (TD), p53 324-356, fused with MoTag2]	4	
B1		4
